Source: the supplement of paper PMC11246515
± gives the standard deviation of the averaged measurements.

Assay: total protein half-life in vivo (active degradation + dilution); higher = more stable protein
[1] = E. coli NCM3722 delta-clpP delta-lon delta-hslV, growth: N-lim chemostat, doubling time 6 h
[2] = E. coli NCM3722 delta-clpP, growth: N-lim chemostat, doubling time 6 h
[3] = E. coli NCM3722 delta-hslV, growth: N-lim chemostat, doubling time 6 h
[4] = E. coli NCM3722 delta-lon, growth: N-lim chemostat, doubling time 6 h
[5] = E. coli NCM3722 delta-smpB, growth: N-lim chemostat, doubling time 6 h
[6] = wild type E. coli NCM3722, growth: C-lim chemostat, doubling time 3 h
[7] = wild type E. coli NCM3722, growth: C-lim chemostat, doubling time 6 h
[8] = wild type E. coli NCM3722, growth: C-lim chemostat, doubling time 12 h
[9] = wild type E. coli NCM3722, growth: N-lim chemostat, doubling time 6 h
[10] = wild type E. coli NCM3722, growth: N-lim chemostat, doubling time 12 h
[11] = wild type E. coli NCM3722, growth: P-lim chemostat, doubling time 6 h
[12] = wild type E. coli NCM3722, growth: P-lim chemostat, doubling time 12 h

Row | Sequence | total protein half-life in vivo [1] [h] | total protein half-life in vivo [2] [h] | total protein half-life in vivo [3] [h] | total protein half-life in vivo [4] [h] | total protein half-life in vivo [5] [h] | total protein half-life in vivo [6] [h] | total protein half-life in vivo [7] [h] | total protein half-life in vivo [8] [h] | total protein half-life in vivo [9] [h] | total protein half-life in vivo [10] [h] | total protein half-life in vivo [11] [h] | total protein half-life in vivo [12] [h]
1 | MTIHKKGQAHWEGDIKRGKGTVSTESGVLNQQPYGFNTRFEGEKGTNPEELIGAAHAACFSMALSLMLGEAGFTPTSIDTTADVSLDKVDAGFAITKIALKSEVAVPGIDASTFDGIIQKAKAGCPVSQVLKAEITLDYQLKS [P0C0L2] | 5.71 ± 0.14 | 5.45 ± 0.62 | 5.59 ± 0.41 | 5.84 ± 0.083 | 4.963 ± 0.042 | 3.08 ± 0.62 | 6.63 ± 0.81 | 12.1 ± 0.22 | 5.3 ± 0.28 | 9.59 ± 0.6 | 5.84 ± 0.082 | 12.6 ± 0.93
2 | MGLPPLSKIPLILRPQAWLHRRHYGEVLSPIRWWGRIPFIFYLVSMFVGWLERKRSPLDPVVRSLVSARIAQMCLCEFCVDITSMKVAERTGSSDKLLAVADWRQSPLFSDEERLALEYAEAASVTPPTVDDALRTRLAAHFDAQALTELTALIGLQNLSARFNSAMDIPAQGLCRIPEKRS | 6.87 ± 0.28 | 6.4 ± 0.37 | 6.22 ± 0.48 | 6.463 ± 0.023 | 5.67 ± 0.46 | 2.74 ± 0.068 | 5.52 ± 0.59 | 12.1 ± 0.48 | 6 ± 0.46 | 11.3 ± 3.4 | 6.48 ± 0.71 | 13.1 ± 0.5
3 | MDINNKARIHWACRRGMRELDISIMPFFEHEYDSLSDDEKRIFIRLLECDDPDLFNWLMNHGKPADAELEMMVRLIQTRNRERGPVAI | 5.79 ± 0.24 |  |  |  |  | 3 |  | 6.71 |  |  | 4.97 | 11.3 ± 2.2
4 | MYQDKILVRQLGLQPYEPISQAMHEFTDTRDDSTLDEIWLVEHYPVFTQGQAGKAEHILMPGDIPVIQSDRGGQVTYHGPGQQVMYVLLNLKRRKLGVRELVTLLEQTVVNTLAELGIEAHPRADAPGVYVGEKKICSLGLRIRRGCSFHGLALNVNMDLSPFLRINPCGYAGMEMAKISQWKPEATTNNIAPRLLENILALLNNPDFEYITA | 4.39 ± 0.44 | 4.08 ± 0.77 | 3.55 | > 8 | 3.73 ± 0.15 | 2.63 ± 0.15 | 6.03 ± 0.89 | 14.3 | 5.66 | 5.51 ± 1.4 | 5.14 ± 0.06 | 10.6 ± 0.37
5 | MQILFNDQAMQCAAGQTVHELLEQLDQRQAGAALAINQQIVPREQWAQHIVQDGDQILLFQVIAGG | 2.75 |  |  |  |  |  |  | 4.47 | 1.3 |  | 3.24 | 5.24 ± 0.77
6 | MKILRWLFALVMLIATTEAMAAGHSVDVYYGYNGDSRNIATFNLKIMMPSAVYVGEYKSSQWLMTGEILQNVSWSGPPPAPSVKLIGYHQNINKASCPGLPSGWNCGYYTFEVIVSAEIESYFSCPWLVIMNDSEASPGGVTYQGPDSHDTICPSVSVQPYDVSWNENYVSKSKLLTLQSTGGVVEKTLSTYLMKDGKLCDSTQMNETGGYCRWVAQMITFTASGCDKAEVSVTPNRHPITDKQLHDMVVRVDTSSMQPIDSTCRFQYILNEL | 4.06 ± 0.19 | 4.43 |  | 4.34 | 5.02 ± 1.1 | 3.03 ± 0.58 |  | 6.01 | 4.81 | > 16 | 4.43 | 8.64 ± 0.17
7 | MPENYTPAAAATGTWTEEEIRHQPRAWIRSLTNIDALRSALNNFLEPLLRKENLRIILTGAGTSAFIGDIIAPWLASHTGKNFSAVPTTDLVTNPMDYLNPAHPLLLISFGRSGNSPESVAAVELANQFVPECYHLPITCNEAGALYQNAINSDNAFALLMPAETHDRGFAMTSSITTMMASCLAVFAPETINSQTFRDVADRCQAILTSLGDFSEGVFGYAPWKRIVYLGSGGLQGAARESALKVLELTAGKLAAFYDSPTGFRHGPKSLVDDETLVVVFVSSHPYTRQYDLDLLAELRRDNQAMRVIAIAAESSDIVAAGPHIILPPSRHFIDVEQAFCFLMYAQTFALMQSLHMGNTPDTPSASGTVNRVVQGVIIHPWQA |  |  |  |  |  | 3.44 ± 0.35 | 3.18 | 5.91 |  |  |  | 
8 | MKILIVEDDTLLLQGLILAAQTEGYACDSVTTARMAEQSLEAGHYSLVVLDLGLPDEDGLHFLARIRQKKYTLPVLILTARDTLTDKIAGLDVGADDYLVKPFALEELHARIRALLRRHNNQGESELIVGNLTLNMGRRQVWMGGEELILTPKEYALLSRLMLKAGSPVHREILYNDIYNWDNEPSTNTLEVHIHNLRDKVGKARIRTVRGFGYMLVANEEN | 6.35 ± 0.76 | 5.04 ± 0.91 | 4.7 ± 0.14 | 4.71 ± 0.34 | 3.93 ± 0.24 |  | 5.33 ± 0.18 | 9.36 ± 0.56 | 5.55 ± 1.2 | 7.56 ± 0.27 | 4.89 ± 0.26 | 9.22 ± 0.027
9 | MIIYLHGFDSNSPGNHEKVLQLQFIDPDVRLISYSTRHPKHDMQHLLKEVDKMLQLNVDERPLICGVGLGGYWAERIGFLCDIRQVIFNPNLFPYENMEGKIDRPEEYADIATKCVTNFREKNRDRCLVILSRNDEALNSQRTSEELHHYYEIVWDEEQTHKFKNISPHLQRIKAFKTLG [P0A8E1] | 4.77 ± 0.071 | 4.58 ± 1.1 | 4.44 ± 0.73 | 4.75 ± 0.35 | 4.37 ± 0.91 | 2.64 ± 0.47 | 4.65 ± 0.2 | 7.7 ± 1.6 | 3.92 ± 0.39 | 6.49 ± 0.25 | 5.07 ± 0.15 | 10.6 ± 0.38
